Source: paper PMC10086252, “Tomato chlorosis virus CPm protein is a pathogenicity determinant and suppresses host local RNA silencing induced by single-stranded RNA”

Molecular target: CPm (minor coat protein) (Tomato chlorosis virus, UniProt A0A088FMK1 1-669)
Assay: EMSA; […], room temperature 30 min; […]; binding buffer, […]
Conditions: protein: recombinant; tags: His (pET28a); label: 5'-biotin; single strand

B1: siRGFP-guide (single-stranded GFP RNA probe) (ssRNA)
RNA: UCAACAGGAUCGAGCUUAAGG
  binding result: no binding
